B1: 10D4 (antibody, V domains shown)
VH: QVQLQQSDAELVKPGASVKISCKVSGYTFSDHTFHWMKQRPEQGLEWIGYFYPRDGRSKYNEKFRDKATLTADKSSSTAYMQLNSLTSEDSAVYFCTCDGFDYWGQGTTLTVSS
VL: DIKMTQSPSSMHASLGERVTITCKASQDINSYLSWFQQKPGKSPKTLIYHADRLVDGVPSRFSGSGSGQDYSLTISSLEYEDMGIYYCLQYDEFPYTFGGGTKLEIKR
notes: Entries are printed with leader peptide and part of the mouse constant region; also called LILRB2 antibody 10D4
B2: 3B3 (antibody, V domains shown)
VH: QVQLQQPGAELVKPGASVKMSCKASDYTFTSYWITWVKKRPGQGLEWIGDIYPGSDTTNYNEKFKNKATLTVDTSSSTAHMQLSSLTSEDSAVYYCTRPLYQGISPWFAYWGQGTLVTVSA
VL: NIVMTQSPKSMSMSVGERVTLSCKASENVGTYVSWYQQKPEQSPKLLIYGASNRYTGVPDRFTGSGSATDFTLTISSVQAEDLADYHCGQSYSYPFTFGSGTKLEIKR
notes: Entries are printed with leader peptide and part of the mouse constant region; also called LILRB2 antibody 3B3
B3: 6B3 (antibody, V domains shown)
VH: EVQLQESGPELLKPGASMKISCKASGYTFTDDYMNWVKQSHGKSLEWIGDINPNNGGTSYNQKFKGKATLTVDKSSSTAYMELRSLTSEDSAVYYCARGSPWFAYWGQGTLVTVSA
VL: DIQMTQTTSSLSASLGDRVTINCRASQDIRNYLSWYQQKPDGTVKLLIYYTSRLHSGVPSRFSGSGSGRDYSLTISNLEQEDIATYFCQQSNTLPWTFGGGTKLEITR
notes: Entries are printed with leader peptide and part of the mouse constant region (heavy entry ends within CH1); also called LILRB2 antibody 6B3
B4: 10A8 (antibody, V domains shown)
VH: EVQLVESGGDFVKPGGSLKLSCAASGFTFSSYDMSWVRQTPDKRLEWVATIIRGDSYTYYLDSVKGRFTISRDNAKNTLYLQMSSLKSEDTAMYYCARPSYGNSFDYWGQGTTLTVSS
VL: DIVMTQSHKFMSTSIGDRVSITCKASQDVNNAVAWYQQKPGQSPKLLIYAASYRYTGVPDRFTGSGSGTDFTFTISSVQAEDLAVYHCQQHYGIPWTFGGGTKLEIKR
notes: Entries are printed with leader peptide and part of the mouse constant region; also called LILRB2 antibody 10A8
B5: 8D2 (antibody, V domains shown)
VH: QIQLVQSGPELKKPGETVKISCKASGYTFTTYGMSWVKQAPGKGLKWMGWINTYSGAPAYVDDFKGRFAFSLETSASTAYLQINNLKNEDTATYFCARHFYSGSSYWYFDVWGTGTTVTVSS
VL: DIQMTQSPASLSVSVGETVTITCRASENIYSNLAWYQQKQGKSPQLLVYAATNLADGVPSRFSGSGSGTQYSLKINSLQSEDFGSYYCQHFWGTPRTFGGGTKLEIKR
notes: Entries are printed with leader peptide and part of the mouse constant region; also called LILRB2 antibody 8D2

Each binder was assayed against T1, Recombinant human Fc-tagged extracellular domain of LILRB2 (human, UniProt Q8N423 22-460) (assay: SPR, Biacore X100; LILRB2-Fc amine-coupled to CM5 chip, antibody injected at 3.7-300 nM).
T1 construct: extracellular domain; Bought from R&D Systems; also called LILRB2-Fc; not shown: Fc tag
T1 sequence (Q8N423 22-460): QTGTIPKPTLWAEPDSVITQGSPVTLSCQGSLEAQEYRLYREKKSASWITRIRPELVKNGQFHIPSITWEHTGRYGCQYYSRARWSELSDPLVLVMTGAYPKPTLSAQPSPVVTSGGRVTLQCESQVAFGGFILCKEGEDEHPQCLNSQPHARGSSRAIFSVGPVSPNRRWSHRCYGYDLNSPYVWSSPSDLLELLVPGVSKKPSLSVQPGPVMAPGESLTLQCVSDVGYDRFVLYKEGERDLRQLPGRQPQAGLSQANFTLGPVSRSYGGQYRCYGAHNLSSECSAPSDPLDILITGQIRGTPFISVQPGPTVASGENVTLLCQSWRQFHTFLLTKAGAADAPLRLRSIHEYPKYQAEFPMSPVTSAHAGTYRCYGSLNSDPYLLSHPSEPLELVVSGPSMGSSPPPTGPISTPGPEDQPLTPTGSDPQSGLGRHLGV
Description: Dissociation constants (Kd) for mouse anti-human LILRB1 and LIRB2 antibodies were determined using a Biacore X100 surface plasmon resonance instrument (Cytivia). Recombinant human Fc-tagged extracellular domains of LILRB1 or LILRB2 (LILRB1-Fc or LILRB2-Fc; R&D Systems) were immobilized on a Biacore CM5 biosensor chip by amine coupling at a density of 40-50 relative units (RU). Purified mouse monoclonal antibodies were injected over the biosensor in a concentration series of 3.7, 11, 33, 100, and 300 nM in HBS-EP buffer (10 mM HEPS pH 7.4, […], 3 mM EDTA, 0.005% v/v Surfactant P20) at a flow rate of 50 μL/min. Regeneration of the chip was achieved by a 30 s injection of 10 mM glycine-HCl, pH 1.7. Affinity parameters were determined by fitting response data using the accompanying Biacore X100 analysis software.
With B1 the “-log(Kd)” value was 7.82.
For B2, the “-log(Kd)” value was 8.01.
In the case of B3, the “-log(Kd)” value is reported as 9.02.
In the case of B4, the “-log(Kd)” value is reported as 8.77.
B5 was tested, and the “-log(Kd)” value was 8.43.
